B1: CPEB3 Ribozyme (parent)
chain: GGGGGCCACAGCAGAAGCGUUCACGUCGCGGCCCCUGUCAGAUUCUGGUGAAUCUGCGAAUUCUGCUGU

The variants in this series derive from B1. As to the kind of experiment: self-cleavage, relative activity (ratio to wild type); higher = more cleavage; co-transcriptional.
Consider G41A C45U, for which the self-cleavage was 0.677.
In the case of C39U G58C, the self-cleavage is 0.946.
Regarding C39U G58U, the self-cleavage was found to be 0.961.
Under C39U G58A stands 0.873; under A40U A59U, 0.459.
Under A40U A59G stands 0.887.
Under A40G C45U stands 0.933; under A40G C45A, 0.884.
Turning to A40G C63U, the self-cleavage stood at 0.915.
Under A40G C63A stands 0.689; under A40G C63G, 0.563.
Under A40C G65A stands 0.387; under A40C G65C, 0.332.
Under A40G G41C stands 0.433; under A40G G41A, 0.706.
As for A40G G41U, the self-cleavage is 0.722.
Take C39U U62C: the self-cleavage is 0.514.
Regarding C39U U62A, the self-cleavage was found to be 0.702.
Under C39U U62G stands 0.622.
Under A40U G50A stands 0.731.
Under A40U G50C stands 0.643; under A40C G48U, 0.884.
On to C39G U49C, for which the self-cleavage came out at 0.875.
Consider C39G U49A, for which the self-cleavage worked out at 0.923.
Under A40G U43A stands 0.809; under A40G U43C, 0.764.
Under A40G U43G stands 0.614; under A40C U55A, 0.697; under A40C U55C, 0.515.
Under G41A A42C stands 0.588; under G41A A42G, 0.855.
Regarding G41A A51U, the self-cleavage stood at 0.511.
With A40G A60G, the self-cleavage was 0.859.
A40G A60C: the self-cleavage was 0.329.
On to A40G A60U, for which the self-cleavage came to 0.486.
In the case of C39G U64G, the self-cleavage stood at 0.642.
Under C39G U64C stands 0.736; under A40C U53A, 0.311.
Under A40C U53G stands 0.15.
Under A40C U53C stands 0.219.
A40G U53A: the self-cleavage is 0.759.
Under A40G U53G stands 0.813; under A40G U53C, 0.649.
On to G41A C66G, for which the self-cleavage came out at 0.429.
Under C39G U43A stands 0.522; under C39G U43G, 0.448; under A40C A60U, 0.217.
Under A40U A52G stands 0.832.
Under C39U A51U stands 0.836; under A40G C57G, 0.326.
On to A40G U64A, for which the self-cleavage came out at 0.759.
Under C39G G58A stands 0.864; under C39G G58U, 1.01.
With G41A A59C, the self-cleavage stood at 0.358.
Under A40C A51U stands 0.324.
Under A40C A51G stands 0.494.
As to A40U U46C, the self-cleavage amounted to 0.716.
Under A40U U46G stands 0.878; under A40U U46A, 0.919; under A40U C66A, 0.397.
Under A40U C66U stands 0.729; under A40U C66G, 0.325; under A40U U64G, 0.598.
Under A40U U64A stands 0.435; under A40G G50U, 0.971.
As to A40G G50A, the self-cleavage is 0.918.
Under A40G G50C stands 0.943.
Under C39G G56C stands 0.938; under C39G G56U, 1; under C39G G56A, 0.882.
Under C39G U55A stands 0.866; under A40G U61A, 0.863; under A40G U61G, 0.823.
In the case of A40G U61C, the self-cleavage came to 0.48.
Under A40C G56A stands 0.546; under A40C G56U, 0.401; under A40C G56C, 0.341.
Under A40G A42G stands 0.822; under A40G A42U, 0.763.
Under A40U G47C stands 0.88; under A40C G58U, 0.727.
Consider A40C G58C, for which the self-cleavage was determined as 0.776.
Under C39G A59C stands 0.488; under C39G A59U, 0.587.
Under C39A U67G stands 0.932; under C39A U67A, 0.846; under C39A U67C, 0.918.
Under G41A C63U stands 0.59.
As for G41A C63G, the self-cleavage stood at 0.348.
Under C39G A51U stands 0.853; under C39G A51G, 0.924; under C39G A51C, 0.718.
As to A40G U67G, the self-cleavage turned out to be 0.965.
Under A40G U67C stands 0.901.
For A40U U62G, the self-cleavage was found to be 0.426.
As to A40U U62A, the self-cleavage came out at 0.436.
For the variant A40U U62C, the self-cleavage is 0.351.
Under A40C G50U stands 0.55; under C39A U61G, 0.402.
Under C39A U61C stands 0.328.
Under C39U G56C stands 0.887.
With C39U G56A, the self-cleavage came to 1.
Under A40G G65C stands 0.434.
Under A40G G65A stands 0.756; under A40C U46A, 0.866; under A40C U46C, 0.273.
Under A40C U46G stands 0.802; under A40U U69A, 0.964; under A40U U69G, 0.987.
Turning to A40U U69C, the self-cleavage was 1.
Under C39A U69G stands 0.964; under A40U C57G, 0.366.
Under A40C U64A stands 0.357; under C39G C45U, 0.938; under C39G C45A, 0.787.
Under C39G C45G stands 0.828.
Turning to C39U, the self-cleavage was 0.954.
Under C39G stands 0.967; under C39G G41U, 0.436.
Under C39G G41C stands 0.351; under C39U A42G, 0.514; under C39U A42C, 0.542.
Under A40U A42G stands 0.189; under A40U A42U, 0.46.
In the case of A40U A42C, the self-cleavage amounted to 0.419.
Under C39A U64C stands 0.544; under A40U G48U, 0.936.
Under A40U G48C stands 0.893; under A40G G68C, 0.953; under A40G G68A, 0.954.
Under A40U G56A stands 0.818.
In the case of A40U U44G, the self-cleavage stood at 0.623.
Under A40U U44C stands 0.262; under A40C C45U, 0.497.
Under A40C C45G stands 0.531; under A40C C45A, 0.534.
Under C39G G68C stands 0.955.
With C39G G68A, the self-cleavage amounted to 0.95.
Under A40G A59C stands 0.568; under A40G A59G, 0.935; under C39G C66G, 0.566.
Consider C39G C66U, for which the self-cleavage is 0.961.
Under A40U C54G stands 0.457.
Under A40U C54U stands 0.759; under A40U U55A, 0.936.
As for A40U U55G, the self-cleavage is 0.839.
A40U U55C: the self-cleavage worked out at 0.828.
Under C39G U62A stands 0.788; under C39G U62G, 0.592.
Under C39G U62C stands 0.658; under C39U C45U, 0.862; under C39U U44A, 0.517.
Under C39U A59G stands 0.987; under C39G G48A, 0.957.
On to C39G G48U, for which the self-cleavage stood at 0.966.
Under G41A G47C stands 0.913; under A40G U49A, 0.969.
With A40G U49C, the self-cleavage was 0.877.
Under A40G U49G stands 0.999; under A40G U46G, 0.977.
Take A40G U46A: the self-cleavage came to 0.971.
Under A40G U46C stands 0.942; under A40U U53C, 0.296.
Under A40C C57A stands 0.2; under A40C C57G, 0.316; under C39U G41U, 0.337.
Under C39U G41A stands 0.475.
